# Results taken from patent US10239925B2, “Peptides and combination of peptides for use in immunotherapy against ovarian cancer and other cancers” (IMMATICS BIOTECHNOLOGIES GMBH, priority 2015, dated 2019).
# Molecular target: HLA-A*02:01 (Homo sapiens, UniProt P04439, D140Y/D185E/D98H/E176V/E277Q/G131W/G231S/I119V/I121R/I166T/I218V/L300P/L318F/N151K/N90K/P208A/P217A/Q86G/Q94H/R138H/R169H/T345S)
# Assay: MHC binding assay (UV-ligand exchange, anti-β2m ELISA, peptide exchange yield)
# Conditions: binding to HLA-A*02:01
# Outline: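 Yield of stabilized complexes quantified via the β2m light chain in an ELISA (streptavidin capture, 100-fold diluted monomers, HRP anti-β2m 2 ug/ml at 37 °C, TMB, A450). The complexes come from UV-triggered replacement of a photocleavable ligand by the candidate peptide.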
row,"Peptide exchange (MHC class I binding score, peptide exchange yield)",Substance
1,“++” (>20% = ++),434 (KVSNSGITRV; listed as Homo sapiens) [compound 434]
2,“+++” (>50 = +++),301 (FLVEDLVDSL; listed as Homo sapiens) [compound 301]
3,“+++” (>50 = +++),350 (ALLDVTHSELTV; listed as Homo sapiens) [compound 350]
4,“+++” (>50 = +++),506 (KLLGKVETA; listed as Homo sapiens) [compound 506]
5,“++” (>20% = ++),218 (SALEELVNV; listed as Homo sapiens) [compound 218]
6,“++” (>20% = ++),398 (KLLEEDGTIITL; listed as Homo sapiens) [compound 398]
7,“+++” (>50 = +++),343 (SLLEVNEESTV; listed as Homo sapiens) [compound 343]
8,“+++” (>50 = +++),250 (ALSEEGLLVYL; listed as Homo sapiens) [compound 250]
9,“+++” (>50 = +++),312 (IISDLTIAL; listed as Homo sapiens) [compound 312]
10,“+++” (>50 = +++),188 (GLFPVTPEAV; listed as Homo sapiens) [compound 188]
11,“+++” (>50 = +++),123 (NLWDLTDASVV; listed as Homo sapiens) [compound 123]
12,“+++” (>50 = +++),584 (ALAEVAAMENV; listed as Homo sapiens) [compound 584]
13,“++++” (>75% = ++++),62 (VLLDVSAGQLLM; listed as Homo sapiens) [compound 62]
14,“++” (>20% = ++),491 (GLNDRSDAV; listed as Homo sapiens) [compound 491]
15,“++” (>20% = ++),432 (TLIEESAKV; listed as Homo sapiens) [compound 432]
16,“++” (>20% = ++),84 (VTFGEKLLGV; listed as Homo sapiens) [compound 84]
17,“+++” (>50 = +++),509 (FLFDTKPLIV; listed as Homo sapiens) [compound 509]
18,“+” (>10% = +),116 (YHIDEEVGF; listed as Homo sapiens) [compound 116]
19,“+++” (>50 = +++),383 (ALLELENSVTL; listed as Homo sapiens) [compound 383]
20,“+++” (>50 = +++),507 (KLIDDQDISISL; listed as Homo sapiens) [compound 507]
21,“+++” (>50 = +++),76 (ILIDSIYKV; listed as Homo sapiens) [compound 76]
22,“++++” (>75% = ++++),68 (SLMELPRGLFL; listed as Homo sapiens) [compound 68]
23,“+++” (>50 = +++),50 (SLSELEALM; listed as Homo sapiens) [compound 50]
24,“+++” (>50 = +++),42 (VLLQKIVSA; listed as Homo sapiens) [compound 42]
25,“+++” (>50 = +++),450 (FMIDASVHPTL; listed as Homo sapiens) [compound 450]
26,“++++” (>75% = ++++),4 (GIMEHITKI; listed as Homo sapiens) [compound 4]
27,“++” (>20% = ++),363 (KVLDVSDLESV; listed as Homo sapiens) [compound 363]
28,“+++” (>50 = +++),85 (KMSELRVTL; listed as Homo sapiens) [compound 85]
29,“+++” (>50 = +++),495 (FIFSEKPVFV; listed as Homo sapiens) [compound 495]

# Second part, the substance before the results:
row,Substance,"Peptide exchange (MHC class I binding score, peptide exchange yield)"
1,400 (SLLTEQDLWTV; listed as Homo sapiens) [compound 400],“++” (>20% = ++)
2,169 (NLPEYLPFV; listed as Homo sapiens) [compound 169],“+++” (>50 = +++)
3,455 (SLLKEPQKVQL; listed as Homo sapiens) [compound 455],“++” (>20% = ++)
4,88 (FLLVGDLMAV; listed as Homo sapiens) [compound 88],“+++” (>50 = +++)
5,546 (VMIAGKVAVV; listed as Homo sapiens) [compound 546],“+++” (>50 = +++)
6,204 (KIAENVEEV; listed as Homo sapiens) [compound 204],“++” (>20% = ++)
7,144 (YIMEPSIFNTL; listed as Homo sapiens) [compound 144],“+++” (>50 = +++)
8,608 (SLLSVSHAL; listed as Homo sapiens) [compound 608],“+++” (>50 = +++)
9,456 (LLIGHLERV; listed as Homo sapiens) [compound 456],“+++” (>50 = +++)
10,322 (TLMTSLPAL; listed as Homo sapiens) [compound 322],“+++” (>50 = +++)
11,407 (YLMDLINFL; listed as Homo sapiens) [compound 407],“+++” (>50 = +++)
12,158 (KLFDVDEDGYI; listed as Homo sapiens) [compound 158],“+++” (>50 = +++)
13,216 (NLWEDPYYL; listed as Homo sapiens) [compound 216],“+++” (>50 = +++)
14,305 (SIANFSEFYV; listed as Homo sapiens) [compound 305],“++++” (>75% = ++++)
15,282 (LLADVVPTT; listed as Homo sapiens) [compound 282],“+++” (>50 = +++)
16,437 (SMAPGLVIQAV; listed as Homo sapiens) [compound 437],“+++” (>50 = +++)
17,389 (LLADVTHLL; listed as Homo sapiens) [compound 389],“++” (>20% = ++)
18,99 (ALVSKGLATV; listed as Homo sapiens) [compound 99],“++” (>20% = ++)
19,598 (FLFPHSVLV; listed as Homo sapiens) [compound 598],“+++” (>50 = +++)
20,462 (KLAKQPETV; listed as Homo sapiens) [compound 462],“+++” (>50 = +++)
21,202 (ALLDQQGSRWTL; listed as Homo sapiens) [compound 202],“+++” (>50 = +++)
